{"source": "patent US8652790B2", "about": "“Conformational entropy in molecular recognition” (The Trustees of the University of Pennsylvania, priority 2007, dated 2014)", "key": {"calmodulin [1]": {"biological_target": "T1, calmodulin (Homo sapiens, UniProt P0DP23)", "assay": "NMR relaxation: backbone dynamics (order parameters) of calmodulin in complex with target domains", "conditions": "average ± standard deviation, 35° C.; for <O^2CαCO>: CO—Cα bond vectors of calmodulin in complex; for <O^2NH>: N—H bond vectors of calmodulin in complex", "source_text": "The sub-nanosecond (sub-ns) dynamics of the polypeptide backbone of calmodulin in the six complexes were probed using NMR relaxation techniques. The degree of spatial restriction of each motional probe was assigned a number between 0, corresponding to complete isotropic disorder, and 1, corresponding to a fixed orientation in the molecular frame. This parameter is the squared generalized order parameter (O^2) as it applies to the amide N—H bond (O^2NH), the Cα—C′ bond (O^2cαcO) and the methyl symmetry axis (O^2axis). O^2NH parameters at amide nitrogen sites were obtained from measurements of ^15N dipolar relaxation. Farrow, N. A. et al. Backbone dynamics of a free and a phosphopeptide-complexed Src homology-2 domain studied by ^15N NMR relaxation. Biochemistry 33, 5984-6003 (1994). O^2cαcO parameters were obtained from measurement of transverse cross-correlated relaxation between ^13CO chemical shift anisotropy and the ^13CO—^13Cα dipolar interactions. Wang, T., Cai, S. & Zuiderweg, E. R. Temperature dependence of anisotropic protein backbone dynamics. J. Am. Chem. Soc. […] The motion of methyl groups (O^2axis) of calmodulin side chains were characterized using ^2H spin relaxation methods. Muhandiram, D. R. et al. Measurement of H-2 T-1 and T-1p relaxation-times in uniformly C-13-Labeled and fractionally H-2-labeled proteins in solution. J. Am. Chem. Soc. 117, 11536-11544 (1995).\nO^2axis parameters were determined from T1 and T1p deuterium relaxation (Muhandiram, D. R. et al. Measurement of H-2 T-1 and T-1p relaxation-times in uniformly C-13-Labeled and fractionally H-2-labeled proteins in solution. J. Am. Chem. Soc. 117, 11536-11544 (1995)) measured at two magnetic fields. Rotational correlation times and O^2NH were determined from ^15N relaxation (Farrow, N. A. et al. Backbone dynamics of a free and a phosphopeptide-complexed Src homology-2 domain studied by ^15N NMR relaxation. Biochemistry 33, 5984-6003 (1994)) obtained at two magnetic fields. O^2CαCO parameters were determined by transverse cross-correlated relaxation. Wang, T., Cai, S. & Zuiderweg, E. R. Temperature dependence of anisotropic protein backbone dynamics. J. Am. Chem. Soc. […] All measurements were made at 35° C. Model-free parameters (Lipari, G. & Szabo, A. Model-free approach to the interpretation of nuclear magnetic-resonance relaxation in macromolecules. 1. Theory and range of validity. J. Am. Chem. Soc. 104, 4546-4559 (1982)) were determined using a grid search approach (Dellwo, M J. & Wand, A. J. Model-independent and model-dependent analysis of the global and internal dynamics of cyclosporine-A. J. Am. Chem. Soc. 111, 4571-4578 (1989)) using a quadrupolar coupling constant of 167 kHz, an effective N—H bond length of 1.04 Å and ^15N tensor breadth of 170 p.p.m. […] The model-free parameters have been deposited in the Biological Magnetic Resonance Data Bank (“BioMagResBank,” Eldon L. Ulrich; Hideo Akutsu; Jurgen F. Doreleijers; Yoko Harano; Yannis E. Ioannidis; Jundong Lin; Miron Livny; Steve Mading; Dimitri Maziuk; Zachary Miller; Eiichi Nakatani; Christopher F. Schulte; David E. Tolmie; R. Kent Wenger; Hongyang Yao; John L. Markley; Nucleic Acids Research 36, D402-D408 (2007) doi: 10.1093/nar/gkm957)."}, "calmodulin [2]": {"biological_target": "T1, calmodulin", "assay": "Change in conformational entropy of calmodulin on binding a target domain, estimated from methyl O^2axis (harmonic oscillator model)", "conditions": "308 K; for TSconf: absolute conformational entropy of calmodulin in complex; for −TΔSconf: calmodulin upon binding target domain, free CaM reference state; for TSrotamer(fast) / TSrotamer(slow): classical entropy; for TSrotamer(fast): fast rotamer interconversion; for TSrotamer(slow): slowly interconverting conformers; for TSharm: motion within a rotameric well, simple harmonic oscillator", "source_text": "Guided by Karplus and co-workers (see Karplus M et al. (1987)), the present approach connects the change in internal protein dynamics to the conformational entropy, describing the protein as a disjoint multidimensional harmonic well: Sconf=ΣpiS^hi−kBΣpilnpi (2) where S^hi represents the entropy manifested by fast intra-well motion and the second term corresponds to the classical conformational entropy arising from the i=1 . . . N distinct conformations. Here S^hi is obtained from interpretation of local order parameters, which is model-dependent. The present approach finds its modern roots in the work described in Akke, M., Bruschweiler, R. & Palmer, A. G. NMR order parameters and free-energy—an analytical approach and its application to cooperative Ca^2+ binding by calbindin-D(9k). J. Am. Chem. Soc. 115, 9832-9833 (1993), in which a specific motional model (potential energy function) is used to provide a parametric relationship between what is measured, the squared generalized order parameter, and what is sought, a thermodynamic quantity such as the entropy.\nA simple harmonic oscillator treatment was selected to make this connection. Li, Z., Raychaudhuri, S. & Wand, A. J. Insights into the local residual entropy of proteins provided by NMR relaxation. Prot. Sci. 5, 2647-2650 (1996). It is important to note that the absolute entropies obtained in this way are very dependent on the details of the potential energy function but that differences in entropy calculated from changes in O^2 are fairly insensitive to the model used. Li, Z, et al. (1996); Lee, A. L. et al. Temperature dependence of the internal dynamics of a calmodulin peptide complex. Biochemistry 41, 13814-13825 (2002). As the reference state for obtaining ΔSconf we use calcium-saturated calmodulin. The second term of equation (2) represents classical entropy arising from the local heterogeneity of side-chain conformers. This can be manifested on a range of timescales. […] This was interpreted as classical entropy with the population of each state (pi) estimated from the intensity of cross peaks. […] Lee, A. L. et al. (2002). This also represents conformational entropy and was estimated using a previously described model. Id.\nThe change in conformational entropy of calmodulin on binding a target domain was estimated as the sum of three terms: ΔSconf=ΔSharm+ΔSrotamer(fast)+ΔSrotamer(slow). Sharm was obtained from O^2axis parameters using a harmonic oscillator model. Li, Z., Raychaudhuri, S. & Wand, A. J. Insights into the local residual entropy of proteins provided by NMR relaxation. Prot. Sci. 5, 2647-2650 (1996). Free calcium-saturated calmodulin was used as the reference state in site-to-site comparisons. To normalize the unequal number of resolved sites among the complexes, the average methyl order parameter within a complex was assigned to each unresolved site of that complex. A classical entropy term ΔSrotamer(fast) was added to represent minor conformers that are sampled owing to fast rotameric interconversion. Lee, A. L. et al. Temperature dependence of the internal dynamics of a calmodulin peptide complex. Biochemistry 41, 13814-13825 (2002). For the small number of sites having multiple conformations in slow exchange on the NMR chemical shift timescale, an additional classical entropy contribution ΔSrotamer(slow) was calculated on the basis of measured intensities. Populations of the three motional classes were obtained using nonlinear regression of a three gaussian model to the observed order parameter distributions. […]"}}, "data": [{"substance": "(COOH-FPNGFSRKRLMSKVLIVTTWSPLL [CaMKKα(p)]", "values": [{"measurement": "<O^2CαCO>", "setting": "calmodulin [1]", "value": "0.79 ± 0.21"}, {"measurement": "<O^2NH>", "setting": "calmodulin [1]", "value": "0.93 ± 0.08"}, {"measurement": "TSconf", "setting": "calmodulin [2]", "value": 168.6, "unit": "kcal/mol"}, {"measurement": "−TΔSconf", "setting": "calmodulin [2]", "value": "+63.5 kJ/mol"}, {"measurement": "TSrotamer(fast)", "setting": "calmodulin [2]", "value": 23.5, "unit": "kcal/mol"}, {"measurement": "TSrotamer(slow)", "setting": "calmodulin [2]", "value": 2.25, "unit": "kcal/mol"}, {"measurement": "TSharm", "setting": "calmodulin [2]", "value": 142.9, "unit": "kcal/mol"}]}, {"substance": "RKKTFKEVANAVKISASLMG [eNOS(p)]", "values": [{"measurement": "TSconf", "setting": "calmodulin [2]", "value": 172.8, "unit": "kcal/mol"}, {"measurement": "−TΔSconf", "setting": "calmodulin [2]", "value": "+46.1 kJ/mol"}, {"measurement": "TSrotamer(fast)", "setting": "calmodulin [2]", "value": 24.21, "unit": "kcal/mol"}, {"measurement": "TSrotamer(slow)", "setting": "calmodulin [2]", "value": 3.97, "unit": "kcal/mol"}, {"measurement": "TSharm", "setting": "calmodulin [2]", "value": 144.6, "unit": "kcal/mol"}]}, {"substance": "KRRAIGFKKLAEAVKFSAKLMGQ [nNOS(p)]", "values": [{"measurement": "<O^2CαCO>", "setting": "calmodulin [1]", "value": "0.85 ± 0.16"}, {"measurement": "<O^2NH>", "setting": "calmodulin [1]", "value": "0.92 ± 0.08"}, {"measurement": "TSconf", "setting": "calmodulin [2]", "value": 180, "unit": "kcal/mol"}, {"measurement": "−TΔSconf", "setting": "calmodulin [2]", "value": "+15.9 kJ/mol"}, {"measurement": "TSrotamer(fast)", "setting": "calmodulin [2]", "value": 26.31, "unit": "kcal/mol"}, {"measurement": "TSrotamer(slow)", "setting": "calmodulin [2]", "value": 5.93, "unit": "kcal/mol"}, {"measurement": "TSharm", "setting": "calmodulin [2]", "value": 147.8, "unit": "kcal/mol"}]}, {"substance": "QTEKMWQRLKGILRSLVKQ [PDE(p)]", "values": [{"measurement": "<O^2NH>", "setting": "calmodulin [1]", "value": "0.92 ± 0.06"}, {"measurement": "TSconf", "setting": "calmodulin [2]", "value": 177.9, "unit": "kcal/mol"}, {"measurement": "−TΔSconf", "setting": "calmodulin [2]", "value": "+24.9 kJ/mol"}, {"measurement": "TSrotamer(fast)", "setting": "calmodulin [2]", "value": 25.96, "unit": "kcal/mol"}, {"measurement": "TSrotamer(slow)", "setting": "calmodulin [2]", "value": 3.56, "unit": "kcal/mol"}, {"measurement": "TSharm", "setting": "calmodulin [2]", "value": 148.3, "unit": "kcal/mol"}]}, {"substance": "AKSKWKQAFNATAVVRHMRKLQ (listed as Homo sapiens) [CaMKI(p)]", "values": [{"measurement": "<O^2CαCO>", "setting": "calmodulin [1]", "value": "0.88 ± 0.14"}, {"measurement": "<O^2NH>", "setting": "calmodulin [1]", "value": "0.94 ± 0.08"}, {"measurement": "TSconf", "setting": "calmodulin [2]", "value": 168, "unit": "kcal/mol"}, {"measurement": "−TΔSconf", "setting": "calmodulin [2]", "value": "+66.0 kJ/mol"}, {"measurement": "TSrotamer(fast)", "setting": "calmodulin [2]", "value": 22.6, "unit": "kcal/mol"}, {"measurement": "TSrotamer(slow)", "setting": "calmodulin [2]", "value": 3.59, "unit": "kcal/mol"}, {"measurement": "TSharm", "setting": "calmodulin [2]", "value": 141.8, "unit": "kcal/mol"}]}]}
